Measurements taken from patent USRE49847 (dated 2024).

T1: soluble CD22-Fc (R&D Systems) (UniProt P20273 20-687)
T1 construct: Bought reagent used to stain CD22 CARs; not shown: Fc part; detected with anti-human IgG Fc-gamma secondary
T1 sequence (looked up): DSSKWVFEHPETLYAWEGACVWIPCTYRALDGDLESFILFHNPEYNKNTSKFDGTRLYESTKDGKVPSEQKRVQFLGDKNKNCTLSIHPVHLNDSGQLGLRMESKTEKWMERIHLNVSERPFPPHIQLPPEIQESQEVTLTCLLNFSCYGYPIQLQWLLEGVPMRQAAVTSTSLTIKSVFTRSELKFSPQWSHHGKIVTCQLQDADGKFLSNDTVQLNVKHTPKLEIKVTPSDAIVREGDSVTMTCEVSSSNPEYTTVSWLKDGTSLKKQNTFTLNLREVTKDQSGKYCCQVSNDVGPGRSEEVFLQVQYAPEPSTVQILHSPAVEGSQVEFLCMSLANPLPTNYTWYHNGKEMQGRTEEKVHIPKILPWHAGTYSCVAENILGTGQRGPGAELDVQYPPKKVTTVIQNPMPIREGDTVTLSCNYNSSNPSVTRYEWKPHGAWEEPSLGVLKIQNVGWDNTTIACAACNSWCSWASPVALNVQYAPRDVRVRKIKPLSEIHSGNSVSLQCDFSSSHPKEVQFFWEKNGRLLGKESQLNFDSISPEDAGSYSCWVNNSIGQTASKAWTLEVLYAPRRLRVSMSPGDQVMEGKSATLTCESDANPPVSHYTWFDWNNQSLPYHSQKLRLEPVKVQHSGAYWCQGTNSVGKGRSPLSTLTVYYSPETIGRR


The binders below were run against T1, soluble CD22-Fc (R&D Systems) (assay: FACS surface staining of transduced JNL cells with CD22-Fc).

| Binder | binding result |
| --- | --- |
| tandem CD19/CD22 CAR construct 171 (other, Distal anti-CD19 scFv, LAEAAAK, proximal anti-CD22 scFv H/L; also called CG#c171; c171) EIVMTQSPATLSLSPGERATLSCRASQDISKYLNWYQQKPGQAPRLLIYHTSRLHSGIPARFSGSGSGTDYTLTISSLQPEDFAVYFCQQGNTLPYTFGQGTKLEIKGGGGSGGGGSGGGGSQVQLQESGPGLVKPSETLSLTCTVSGVSLPDYGVSWIRQPPGKGLEWIGVIWGSETTYYQSSLKSRVTISKDNSKNQVSLKLSSVTAADTAVYYCAKHYYYGGSYAMDYWGQGTLVTVSSLAEAAAKEVQLQQSGPGLVKPSQTLSLTCAISGDSMLSNSDTWNWIRQSPSRGLEWLGRTYHRSTWYDDYASSVRGRVSINVDTSKNQYSLQLNAVTPEDTGVYYCARVRLQDGNSWSDAFDVWGQGTMVTVSSGGGGSGGGGSGGGGSQSALTQPASASGSPGQSVTISCTGTSSDVGGYNYVSWYQQHPGKAPKLMIYDVSNRPSGVSNRFSGSKSGNTASLTISGLQAEDEADYYCSSYTSSSTLYVFGTGTQLTVLTTTPAPRPPTPAPTIASQPLSLRPEACRPAAGGAVHTRGLDFACDIYIWAPLAGTCGVLLLSLVITLYCKRGRKKLLYIFKQPFMRPVQTTQEEDGCSCRFPEEEEGGCELRVKFSRSADAPAYQQGQNQLYNELNLGRREEYDVLDKRRGRDPEMGGKPRRKNPQEGLYNELQKDKMAEAYSEIGMKGERRRGKGHDGLYQGLSTATKDTYDALHMQALPPR | binds |
| tandem CD19/CD22 CAR construct 172 (other, Distal anti-CD19 scFv, GGGGS, proximal anti-CD22 scFv H/L; leader 1-21 left out; end of range counted without it; also called CG#c172; c172) EIVMTQSPATLSLSPGERATLSCRASQDISKYLNWYQQKPGQAPRLLIYHTSRLHSGIPARFSGSGSGTDYTLTISSLQPEDFAVYFCQQGNTLPYTFGQGTKLEIKGGGGSGGGGSGGGGSQVQLQESGPGLVKPSETLSLTCTVSGVSLPDYGVSWIRQPPGKGLEWIGVIWGSETTYYQSSLKSRVTISKDNSKNQVSLKLSSVTAADTAVYYCAKHYYYGGSYAMDYWGQGTLVTVSSGGGGSEVQLQQSGPGLVKPSQTLSLTCAISGDSMLSNSDTWNWIRQSPSRGLEWLGRTYHRSTWYDDYASSVRGRVSINVDTSKNQYSLQLNAVTPEDTGVYYCARVRLQDGNSWSDAFDVWGQGTMVTVSSGGGGSGGGGSGGGGSQSALTQPASASGSPGQSVTISCTGTSSDVGGYNYVSWYQQHPGKAPKLMIYDVSNRPSGVSNRFSGSKSGNTASLTISGLQAEDEADYYCSSYTSSSTLYVFGTGTQLTVLTTTPAPRPPTPAPTIASQPLSLRPEACRPAAGGAVHTRGLDFACDIYIWAPLAGTCGVLLLSLVITLYCKRGRKKLLYIFKQPFMRPVQTTQEEDGCSCRFPEEEEGGCELRVKFSRSADAPAYQQGQNQLYNELNLGRREEYDVLDKRRGRDPEMGGKPRRKNPQEGLYNELQKDKMAEAYSEIGMKGERRRGKGHDGLYQGLSTATKDTYDALHMQALPPR | binds |

Now from value to binder:

| binding result | Binder |
| --- | --- |
| binds | tandem CD19/CD22 CAR construct 173 (other, Distal anti-CD19 scFv, LAEAAAK, proximal anti-CD22 scFv H/L with short linker; leader 1-21 left out; also called CG#c173; c173) EIVMTQSPATLSLSPGERATLSCRASQDISKYLNWYQQKPGQAPRLLIYHTSRLHSGIPARFSGSGSGTDYTLTISSLQPEDFAVYFCQQGNTLPYTFGQGTKLEIKGGGGSGGGGSGGGGSQVQLQESGPGLVKPSETLSLTCTVSGVSLPDYGVSWIRQPPGKGLEWIGVIWGSETTYYQSSLKSRVTISKDNSKNQVSLKLSSVTAADTAVYYCAKHYYYGGSYAMDYWGQGTLVTVSSLAEAAAKEVQLQQSGPGLVKPSQTLSLTCAISGDSMLSNSDTWNWIRQSPSRGLEWLGRTYHRSTWYDDYASSVRGRVSINVDTSKNQYSLQLNAVTPEDTGVYYCARVRLQDGNSWSDAFDVWGQGTMVTVSSGGGGSQSALTQPASASGSPGQSVTISCTGTSSDVGGYNYVSWYQQHPGKAPKLMIYDVSNRPSGVSNRFSGSKSGNTASLTISGLQAEDEADYYCSSYTSSSTLYVFGTGTQLTVLTTTPAPRPPTPAPTIASQPLSLRPEACRPAAGGAVHTRGLDFACDIYIWAPLAGTCGVLLLSLVITLYCKRGRKKLLYIFKQPFMRPVQTTQEEDGCSCRFPEEEEGGCELRVKFSRSADAPAYQQGQNQLYNELNLGRREEYDVLDKRRGRDPEMGGKPRRKNPQEGLYNELQKDKMAEAYSEIGMKGERRRGKGHDGLYQGLSTATKDTYDALHMQALPPR |
| binds | control anti-CD22 CAR CAR22-65 (other, also called CAR22-65 Long; not shown: hinge, transmembrane, 4-1BB and CD3zeta parts of the CAR) EVQLQQSGPGLVKPSQTLSLTCAISGDSMLSNSDTWNWIRQSPSRGLEWLGRTYHRSTWYDDYASSVRGRVSINVDTSKNQYSLQLNAVTPEDTGVYYCARVRLQDGNSWSDAFDVWGQGTMVTVSSGGGGSGGGGSGGGGSQSALTQPASASGSPGQSVTISCTGTSSDVGGYNYVSWYQQHPGKAPKLMIYDVSNRPSGVSNRFSGSKSGNTASLTISGLQAEDEADYYCSSYTSSSTLYVFGTGTQLTVL |
